Laboratory results as given in the supplement of paper PMC7877785.
± gives the uncertainty stated by the source.

Test: self-splicing fitness, log relative to wild type (ln ratio); higher = more splicing; Tetrahymena group I intron in knt gene, E. coli kanamycin selection, DiMSum; sequences stand for … in CUCUCU…GGAGGGAAAAGUUAUCAGGCAUGCACCUGGUAGCUAGUCUUUAAACCAAUAGAUUGCAUCGGUUUAAAAGGCAAGACCGUCAAAUUGCGGGAAAGGGGUCAACAGCCGUUCAGUACCAAGUCUCAGGGGAAACUUUGAGAUGGCCUUGCAAAGGGUAUGGUAAUAAGCUGACGGACAUGGUCCUAACCACGCAGCCAAGUCCUAAGUCAACAGAUCUUCUGUUGAUAUGGAUGCAGUUCACAGACUAAAUGUCGGUCGGGGAAGAUGUAUUCUUCUCAUAAGAUAUAGUCGGACCUCUCCUUAAUGGGAGCUAGCGGAUGAAGUGAUGCAACACUGGAGCCGCUGGGAACUAAUUUGUAUGCGAAAGUAUAUUGAUUAGUUUUGGAGUACUCGUGGUCG
Summary of the method: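 Six replicate transformations of E. coli BL21(DE3) with a pET-22b(+) library were grown overnight at 37°C or 30°C. The library randomised all eight P1ex-region intron nucleotides, the intron lying in the knt kanamycin-resistance gene, and plates were LB agar with or without 25 μg/mL kanamycin plus 100 μg/mL carbenicillin, 50 μM IPTG and 0.2% rhamnose. Pooled colonies were amplicon-sequenced on an Illumina HiSeq 2500, and fitness is the DiMSum error-weighted combination of wild-type-normalised replicate fold changes, kanamycin versus none.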

Row | Sequence | self-splicing fitness (ln) (30 °C) | self-splicing fitness (ln) (37 °C)
1 | AUAGAGCAAUAUUACGCUAU | -2.49 ± 0.18 | -2.34 ± 0.3
2 | AUAGAGCAAUAUUACGGCAC | -1.75 ± 0.14 | -0.686 ± 0.2
3 | AUAGAGCAAUAUUACGGGAA | -3.43 ± 0.26 | -2.46 ± 0.25
4 | AUAGAGCAAUAUUACGGUGC | -1.96 ± 0.15 | -2.21 ± 0.46
5 | AUAGAGCAAUAUUACGUAAU | -0.582 ± 0.1 | 0.244 ± 0.12
6 | AUAGAGCAAUAUUACGUAUU | -2.46 ± 0.16 | -1.1 ± 0.17
7 | AUAGAGCAAUAUUACGUCCC | -2.36 ± 0.48 | 
8 | AUAGAGCAAUAUUACGUUAG | -1.39 ± 0.11 | -1.21 ± 0.16
9 | AUAGAGCAAUAUUACGUUCC | -2.27 ± 0.22 | -1.53 ± 0.23
10 | AUAUAGCAAUAUUACGACUG | -1.47 ± 0.14 | -1.65 ± 0.21
11 | AUAUAGCAAUAUUACGAGGG | -2.57 ± 0.43 | 
12 | AUAUAGCAAUAUUACGAGUA | -2.18 ± 0.2 | -1.04 ± 0.16
13 | AUAUAGCAAUAUUACGAGUG | -2.78 ± 0.19 | -1.8 ± 0.2
14 | AUAUAGCAAUAUUACGAUCG | -1.94 ± 0.12 | -0.815 ± 0.14
15 | AUAUAGCAAUAUUACGAUUA | -0.958 ± 0.23 | -0.617 ± 0.2
16 | AUAUAGCAAUAUUACGCAAG | -2.34 ± 0.22 | -0.955 ± 0.21
17 | AUAUAGCAAUAUUACGCUCU | -0.66 ± 0.18 | -0.594 ± 0.18
18 | AUAUAGCAAUAUUACGCUUU | -2.12 ± 0.41 | -1.34 ± 0.31
19 | AUAUAGCAAUAUUACGGAAC | -2.89 ± 0.41 | 
20 | AUAUAGCAAUAUUACGGAGU | -2.29 ± 0.13 | -1.82 ± 0.2
21 | AUAUAGCAAUAUUACGGCCC | -0.72 ± 0.15 | -0.205 ± 0.24
22 | AUAUAGCAAUAUUACGGUGA | -1.72 ± 0.2 | -1.11 ± 0.2
23 | AUAUAGCAAUAUUACGUCUG | -2.35 ± 0.1 | -0.0249 ± 0.12
24 | AUAUAGCAAUAUUACGUGCA | -1.57 ± 0.16 | 0.00562 ± 0.16
25 | AUAUAGCAAUAUUACGUGCC | -1.82 ± 0.38 | -1.01 ± 0.41
26 | AUAUAGCAAUAUUACGUUGU | -3.79 ± 0.29 | 

Row | Sequence | self-splicing fitness (ln) (30 °C) | self-splicing fitness (ln) (37 °C)
27 | AUAUAGCAAUAUUACGUUUA | -2.02 ± 0.25 | -1.63 ± 0.2
28 | AUCAAGCAAUAUUACGAAAC | -3.16 ± 0.2 | -3.17 ± 0.28
29 | AUCAAGCAAUAUUACGACAA | -1 ± 0.12 | -0.427 ± 0.12
30 | AUCAAGCAAUAUUACGACAG | -3.07 ± 0.17 | -1.7 ± 0.18
31 | AUCAAGCAAUAUUACGCACC | -0.849 ± 0.26 | -0.581 ± 0.31
32 | AUCAAGCAAUAUUACGCGAC | -2.01 ± 0.23 | -1.58 ± 0.22
33 | AUCAAGCAAUAUUACGCGGG | -2.86 ± 0.14 | -1.04 ± 0.12
34 | AUCAAGCAAUAUUACGCGGU | -4.07 ± 0.19 | -2.03 ± 0.16
35 | AUCAAGCAAUAUUACGCUCA | 0.0216 ± 0.073 | 0.342 ± 0.096
36 | AUCAAGCAAUAUUACGGAUA | -2.42 ± 0.16 | -1.83 ± 0.15
37 | AUCAAGCAAUAUUACGGGAA | -1.87 ± 0.13 | -0.563 ± 0.12
38 | AUCAAGCAAUAUUACGGGCU | -1.86 ± 0.079 | -0.884 ± 0.087
39 | AUCAAGCAAUAUUACGUAUC | -4.11 ± 0.21 | -2.76 ± 0.34
40 | AUCAAGCAAUAUUACGUUCC | -2.85 ± 0.13 | -0.598 ± 0.17
41 | AUCCAGCAAUAUUACGAAGC | -2.53 ± 0.16 | -2.28 ± 0.23
42 | AUCCAGCAAUAUUACGAGCA | -1.14 ± 0.14 | -1.1 ± 0.11
43 | AUCCAGCAAUAUUACGAGGC | -1.97 ± 0.16 | -1.41 ± 0.23
44 | AUCCAGCAAUAUUACGCACA | -0.451 ± 0.098 | 0.366 ± 0.1
45 | AUCCAGCAAUAUUACGCAGC | -1.43 ± 0.13 | -1.26 ± 0.2
46 | AUCCAGCAAUAUUACGCCAA | -2.78 ± 0.22 | -1.71 ± 0.18
47 | AUCCAGCAAUAUUACGCCCA | -0.76 ± 0.14 | -0.212 ± 0.15
48 | AUCCAGCAAUAUUACGCGAA | -0.821 ± 0.054 | -0.468 ± 0.07
49 | AUCCAGCAAUAUUACGCGAG | -0.838 ± 0.065 | -0.241 ± 0.078
50 | AUCCAGCAAUAUUACGCGCG | -2 ± 0.074 | -0.8 ± 0.1
51 | AUCCAGCAAUAUUACGCUAA | -0.717 ± 0.093 | -1.13 ± 0.077
52 | AUCCAGCAAUAUUACGCUAC | -4.03 ± 0.3 | -1.95 ± 0.24

Row | Sequence | self-splicing fitness (ln) (30 °C) | self-splicing fitness (ln) (37 °C)
53 | AUCCAGCAAUAUUACGCUCU | 0.335 ± 0.14 | 0.709 ± 0.15
54 | AUCCAGCAAUAUUACGGACG | 0.0252 ± 0.082 | -0.0752 ± 0.089
55 | AUCCAGCAAUAUUACGGCGA | -1.02 ± 0.098 | -0.399 ± 0.13
56 | AUCCAGCAAUAUUACGGGAC | -4.17 ± 0.27 | -3.04 ± 0.2
57 | AUCCAGCAAUAUUACGGGCA | -0.0628 ± 0.073 | -0.507 ± 0.083
58 | AUCCAGCAAUAUUACGGUAA | -1.02 ± 0.076 | -0.567 ± 0.073
59 | AUCCAGCAAUAUUACGGUAU | -2.88 ± 0.13 | -1.19 ± 0.12
60 | AUCCAGCAAUAUUACGUUGG | -4.05 ± 0.18 | -2.97 ± 0.16
61 | AUCGAGCAAUAUUACGAGGU | -3.26 ± 0.3 | -2.93 ± 0.4
62 | AUCGAGCAAUAUUACGAUCG | -2.9 ± 0.22 | -3.06 ± 0.34
63 | AUCGAGCAAUAUUACGCAGU | -2.07 ± 0.23 | -1.85 ± 0.33
64 | AUCGAGCAAUAUUACGCCAC |  | -2.54 ± 0.45
65 | AUCGAGCAAUAUUACGCCCC | -2.24 ± 0.44 | 
66 | AUCGAGCAAUAUUACGCCGU | -2.52 ± 0.21 | -1.46 ± 0.31
67 | AUCGAGCAAUAUUACGCGGA | -2.55 ± 0.17 | -0.974 ± 0.11
68 | AUCGAGCAAUAUUACGCGUU | -2.01 ± 0.17 | -1.1 ± 0.17
69 | AUCGAGCAAUAUUACGGCAC | -3.16 ± 0.15 | -1.87 ± 0.16
70 | AUCGAGCAAUAUUACGGCGU | -0.0628 ± 0.11 | -0.183 ± 0.11
71 | AUCGAGCAAUAUUACGGUAC |  | -2.51 ± 0.41
72 | AUCGAGCAAUAUUACGGUAU | -2.46 ± 0.13 | -1.12 ± 0.11
73 | AUCGAGCAAUAUUACGUAGA | -3.09 ± 0.32 | -2.7 ± 0.38
74 | AUCGAGCAAUAUUACGUAUC | -2.86 ± 0.35 | -3.28 ± 0.37
75 | AUCGAGCAAUAUUACGUGCA | -2.85 ± 0.21 | -1.14 ± 0.13
76 | AUCUAGCAAUAUUACGAAGG | -3.42 ± 0.3 | -2.01 ± 0.32
77 | AUCUAGCAAUAUUACGAAUA |  | -0.668 ± 0.32
78 | AUCUAGCAAUAUUACGACAA | -1.76 ± 0.23 | 0.296 ± 0.19
